1 molecule from US20250092106A1 (University of California, published 2025) can be followed below.

For this assay, the target named is T1, Recombinant soluble integrin αvβ3 (UniProt P06756 31-992; P05106 27-718).
T1 construct: Soluble heterodimer made 'as described [22]'; also called soluble αvβ3; αvβ3 protein
Description: SPR; soluble αvβ3 immobilized on CM5 chip, HBD as analyte, 1 mM Mn2+.

T1 sequence (P06756 31-992, chain 1 of 2): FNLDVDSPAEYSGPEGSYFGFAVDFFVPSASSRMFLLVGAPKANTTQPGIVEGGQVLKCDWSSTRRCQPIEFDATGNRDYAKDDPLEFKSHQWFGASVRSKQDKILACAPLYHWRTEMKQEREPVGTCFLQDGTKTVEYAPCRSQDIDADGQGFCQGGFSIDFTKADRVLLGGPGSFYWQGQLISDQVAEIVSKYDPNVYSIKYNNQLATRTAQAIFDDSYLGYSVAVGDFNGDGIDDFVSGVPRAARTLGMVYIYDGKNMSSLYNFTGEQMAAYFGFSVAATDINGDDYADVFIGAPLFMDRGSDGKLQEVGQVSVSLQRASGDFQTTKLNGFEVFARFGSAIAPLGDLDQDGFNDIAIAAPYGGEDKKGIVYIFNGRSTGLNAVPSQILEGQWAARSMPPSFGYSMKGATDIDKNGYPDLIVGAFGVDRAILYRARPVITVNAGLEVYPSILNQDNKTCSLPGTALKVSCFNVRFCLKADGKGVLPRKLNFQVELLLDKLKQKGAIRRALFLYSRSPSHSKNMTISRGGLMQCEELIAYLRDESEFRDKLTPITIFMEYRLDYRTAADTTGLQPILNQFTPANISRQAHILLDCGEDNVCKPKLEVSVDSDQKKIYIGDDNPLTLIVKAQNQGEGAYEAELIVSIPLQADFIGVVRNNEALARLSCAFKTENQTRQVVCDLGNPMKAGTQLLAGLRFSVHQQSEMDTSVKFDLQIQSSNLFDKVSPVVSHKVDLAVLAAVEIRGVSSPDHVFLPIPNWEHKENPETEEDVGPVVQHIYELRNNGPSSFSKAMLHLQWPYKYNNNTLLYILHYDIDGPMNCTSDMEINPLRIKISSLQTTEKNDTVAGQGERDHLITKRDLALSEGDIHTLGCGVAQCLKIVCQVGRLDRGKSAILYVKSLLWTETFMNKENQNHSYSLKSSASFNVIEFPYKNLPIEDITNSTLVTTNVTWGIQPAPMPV
T1 sequence (P05106 27-718, chain 2 of 2): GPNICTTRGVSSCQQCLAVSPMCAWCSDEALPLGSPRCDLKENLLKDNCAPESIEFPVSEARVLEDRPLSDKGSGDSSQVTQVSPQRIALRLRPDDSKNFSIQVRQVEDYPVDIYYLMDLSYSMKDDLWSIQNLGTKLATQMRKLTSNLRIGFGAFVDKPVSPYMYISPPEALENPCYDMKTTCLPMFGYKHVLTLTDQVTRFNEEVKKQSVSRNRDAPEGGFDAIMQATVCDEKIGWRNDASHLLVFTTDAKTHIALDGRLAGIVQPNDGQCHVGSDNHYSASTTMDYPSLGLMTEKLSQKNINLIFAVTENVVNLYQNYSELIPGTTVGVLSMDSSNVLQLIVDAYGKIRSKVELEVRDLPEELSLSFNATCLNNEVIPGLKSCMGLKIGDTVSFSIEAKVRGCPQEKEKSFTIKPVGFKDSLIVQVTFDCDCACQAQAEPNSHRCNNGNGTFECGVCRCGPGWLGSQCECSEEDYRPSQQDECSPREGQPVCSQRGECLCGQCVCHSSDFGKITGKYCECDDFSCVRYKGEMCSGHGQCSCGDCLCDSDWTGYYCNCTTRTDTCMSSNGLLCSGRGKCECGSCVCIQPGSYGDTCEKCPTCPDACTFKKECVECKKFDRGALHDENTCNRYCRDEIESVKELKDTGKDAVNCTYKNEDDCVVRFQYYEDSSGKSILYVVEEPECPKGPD

B1: VEGF165 heparin-binding domain (HBD, residues 111-165), wild type (ligand)
chain: QALARASGRGGRVARRGAEESGPPHSPSRRGSASRAGPGRASETMNFLLSWVHWS
In the case of B1, the Kd came to 470 nM.
